This note sets out measurements from PMC3906126.

For the first test, the target named is WW2W domain of WWOX (WW2 domain, residues 57–91, with the Y85W substitution) (human) (UniProt Q9NZC7). Kind of test: ITC.
WW2W domain of WWOX (WW2 domain, residues 57–91, with the Y85W substitution) (human), sequence (Q9NZC7 57-91 Y85W): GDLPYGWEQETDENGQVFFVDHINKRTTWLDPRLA
Take “ErbB4_PY3 peptide (12-mer spanning the PY3 PPXY motif of the ICD of ErbB4)”: the Kd was found to be 54 µM and the dH was -4.15 kcal/mol.

For a further test, the target named is WW1–WW2 tandem module of WWOX (residues 16–91) (human) (UniProt Q9NZC7). Nature of the test: ITC.
WW1–WW2 tandem module of WWOX (residues 16–91) (human), sequence (Q9NZC7 16-91): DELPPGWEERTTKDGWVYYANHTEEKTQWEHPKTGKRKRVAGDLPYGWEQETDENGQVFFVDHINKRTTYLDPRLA
Turning to “ErbB4_PY3 peptide (12-mer spanning the PY3 PPXY motif of the ICD of ErbB4)”, the Kd was 68 µM.

The next test deals with WW1 domain of WWOX (residues 16–50) (human) (UniProt Q9NZC7). Nature of the test: ITC.
WW1 domain of WWOX (residues 16–50) (human), sequence (Q9NZC7 16-50): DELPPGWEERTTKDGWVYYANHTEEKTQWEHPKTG
Consider “PY3_A+5 (ErbB4_PY3 peptide with alanine at position +5)”, for which the Kd was determined as 157 µM and the dH was -11.4 kcal/mol.

Regarding “ErbB4_PY3 peptide (12-mer spanning the PY3 PPXY motif of the ICD of ErbB4)”, the Kd turned out to be 144 µM and the dH is -6.21 kcal/mol.

“PY3_A−2 (ErbB4_PY3 peptide with alanine at position −2)” showed a Kd of 151 µM and a dH of -6.19 kcal/mol.

Substance “PY3_A+2 (ErbB4_PY3 peptide with alanine at position +2)” had a Kd of 287 µM and a dH of -3.63 kcal/mol.

“PY3_A−3 (ErbB4_PY3 peptide with alanine at position −3)” came in with an equilibrium dissociation constant (Kd) of 113 µM and a dH of -3.67 kcal/mol.

The substance “PY3_A+6 (ErbB4_PY3 peptide with alanine at position +6)” displayed a Kd of 135 µM and a dH of -4.78 kcal/mol.

Take “PY3_A−1 (ErbB4_PY3 peptide with alanine at position −1)”: the dissociation constant Kd stood at 161 µM and the dH is -3.33 kcal/mol.

As for “PY3_A+4 (ErbB4_PY3 peptide with alanine at position +4)”, the Kd stood at 275 µM and the dH is -4.02 kcal/mol.
